Experimental data reported in PMC9864105.

Molecular target: recombinant HIV-1 RTIN (reverse transcriptase and integrase in fusion form, the Pol precursor intermediate) (HIV-1 (NL4-3))
Assay: SEC

## recombinant HIV-1 RTIN (reverse transcriptase and integrase in fusion form, the Pol precursor intermediate) (enzyme)
  share of rRTIN in the hexamer or higher multimer: 80%
